The test addresses T1, Human C-C motif ligand 16 (CCL16) (human), O15467.
T1 chain: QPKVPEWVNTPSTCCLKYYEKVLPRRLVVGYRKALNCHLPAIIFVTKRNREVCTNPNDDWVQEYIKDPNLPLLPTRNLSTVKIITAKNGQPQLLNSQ
As to the kind of experiment: SEC; HiLoad 26/60 Superdex 75 pg; 50 mM sodium dihydrogen phosphate, 500 mM sodium chloride, 10% (v/v) glycerol, pH 8.0; apparent mass after calibration with standard proteins in the same buffer. The note with it: remark: other sources report otherwise. A general note: SEC sorts molecules by how far they enter the pores of the column.

B1: Human C-C motif ligand 16 (CCL16), O15467 24-120 (natural protein)
chain: T1 chain
modifications: here or on the partner: two intramolecular disulphide bonds (confirmed by CE-MS and electron density); two intramolecular disulphide bonds (confirmed by CE-MS and electron density)
Broadly, the stoichiometry N is a count of units in the complex or per binding partner. B1: the stoichiometry N came to 2.

Values taken from publication PMC9687583.
